Where “and” joins values, the source holds several entries; their conditions need not be identical. Equal entries are not always repeated.
How the values were obtained:
[1] = Relative potency of penetrating peptides as tested in mice (Example 3); format: in vivo; conditions: IBW-002 = 100
Excerpt: Relative Potency of Penetrating Peptides as Tested in Mice.

[2] = Translocation of ^125I-labeled peptide from mouse intestine loop into blood and organs (Example 1); format: in vivo, BALB/c mice; conditions: for recovered cpm/mouse / blood 15′, total cpm in the blood / blood 30′, total cpm in the blood / blood 60′, total cpm in the blood / blood/injected cpm (%), 15′ / blood/injected cpm (%), 30′ / blood/injected cpm (%), 60′ / recovered/injected cpm (%) / Epididymal fat, cpm recovered / brain, cpm recovered / kidney, cpm recovered / liver, cpm recovered / lungs, cpm recovered: Table 2 formulation (PE 6,200), intestinal loop, 224,160 cpm injected per mouse; for recovered cpm/mouse: blood 60′ plus organs; for blood 15′, total cpm in the blood / blood 30′, total cpm in the blood / blood 60′, total cpm in the blood: calculated from 50 μl sample assuming 2 ml blood; for Epididymal fat, cpm recovered / brain, cpm recovered / kidney, cpm recovered / liver, cpm recovered / lungs, cpm recovered: organ removed after 60 min
Excerpt: The tested peptide, representing a penetrating peptide and a radio-labeled probe in a contiguous construct of SEQ ID NO 3 and SEQ ID NO 17, hereby named IBW 002 (Novetide, lot 40139-45, sequence: Ac-NYYDITLALAGICQSARLVQQLAGGGKGGK-NH2 (SEQ ID NO:22), was ^125I-labeled using the Bolton Hunter Reagent (Biochem. J. 133:529-39 (1973)). The labeled peptide was loaded on a Sephadex G10 column, washed with phosphate buffer and eluted with 3M Tiocyanate in DDW+50% n-butanol. The peak, containing 6 fractions, was kept and used for in vivo experiments.
Four male BALB/c mice, 9-10 weeks old, were deprived of food, 18 hours prior to the experiment.
The mice were anesthetized by i.p. injection of 0.05 ml of a mixture of 0.15 ml xylazine+0.85 ml of ketamin. A 2 cm long incision was made along the center of the abdomen, through the skin and abdominal wall. An intestine loop was gently pulled out through the incision and placed on wet gauze beside the animal. The loop remained intact through the entire procedure and was kept wet during the whole time. The tested compound was injected into the loop, 0.2 ml/ mouse, containing around 200,000 cpm, using a 26G needle. Fifteen minutes post injection the tip of the tail was cut and a 50 μl blood sample was drawn into a glass capillary. This was repeated 30 and 60 minutes post injection. The animals were subsequently sacrificed. The following organs were removed: epididymal fat, kidneys, liver, lungs and brain. Radioactivity in each organ and in blood samples was counted. A 5 μl sample of the injected solution was counted to determine the total injected cpm per mouse.
The total radioactive labeling injected per mouse was 224,160 cpm. Total cpm in the blood was calculated based on the 50 μl blood sample drawn out at different time points post injection, in the assumption that total blood volume of each mouse is 2 ml.

[3] = individual mice, listed as 125I-IBW-002

Ac-NYYDITLALAGICQSARLVQQLAGGGKGGK-NH2 (Ac-NYYDITLALAGICQSARLVQQLAGGGKGGK-NH2; also: 125I label) [IBW-002, ^125I-labeled using the Bolton Hunter Reagent for in vivo tests]
Relative potency (%) [1]: 100% | recovered cpm/mouse [2, 3]: 41,440 cpm and 66,525 cpm and 61,642 cpm and 82,325 cpm | recovered cpm/mouse ([2]; mean of 4 mice): 62,983 cpm | blood 15′, total cpm in the blood [2, 3]: 37,080 cpm and 68,960 cpm and 62,280 cpm and 80,280 cpm | blood 30′, total cpm in the blood [2, 3]: 36,120 cpm and 60,680 cpm and 52,320 cpm and 70,840 cpm | blood 60′, total cpm in the blood [2, 3]: 29,720 cpm and 47,800 cpm and 44,000 cpm and 59,720 cpm | blood 15′, total cpm in the blood ([2]; mean of 4 mice): 62,150 cpm | blood 30′, total cpm in the blood ([2]; mean of 4 mice): 54,990 cpm | blood 60′, total cpm in the blood ([2]; mean of 4 mice): 45,310 cpm | blood/injected cpm (%), 15′ [2, 3]: 16.54% and 30.76% and 27.78% and 35.81% | blood/injected cpm (%), 30′ [2, 3]: 16.11% and 27.07% and 23.34% and 31.60% | blood/injected cpm (%), 60′ [2, 3]: 13.26% and 21.32% and 19.63% and 26.64% | recovered/injected cpm (%) [2, 3]: 18.49% and 29.68% and 27.50% and 36.73% | blood/injected cpm (%), 15′ ([2]; mean of 4 mice): 27.73% | blood/injected cpm (%), 30′ ([2]; mean of 4 mice): 24.53% | blood/injected cpm (%), 60′ ([2]; mean of 4 mice): 20.21% | recovered/injected cpm (%) ([2]; mean of 4 mice): 28.10% | Epididymal fat, cpm recovered [2, 3]: 547 cpm and 869 cpm and 973 cpm and 1,174 cpm | brain, cpm recovered [2, 3]: 138 cpm and 190 cpm and 202 cpm and 301 cpm | kidney, cpm recovered [2, 3]: 4,068 cpm and 6,614 cpm and 6,400 cpm and 7,650 cpm | liver, cpm recovered [2, 3]: 6,102 cpm and 9,709 cpm and 8,718 cpm and 11,674 cpm | lungs, cpm recovered [2, 3]: 865 cpm and 1,343 cpm and 1,349 cpm and 1,806 cpm | Epididymal fat, cpm recovered ([2]; mean of 4 mice): 891 cpm | brain, cpm recovered ([2]; mean of 4 mice): 208 cpm | kidney, cpm recovered ([2]; mean of 4 mice): 6,183 cpm | liver, cpm recovered ([2]; mean of 4 mice): 9,051 cpm | lungs, cpm recovered ([2]; mean of 4 mice): 1,341 cpm | time at which the relative amount in the blood peaked ([2]; post-intestinal administration, blood sampled at 15, 30 and 60 min, Table 2 formulation): 15 min

— US20050215478A1, “Amino acid sequences capable of facilitating penetration across a biological barrier” (priority 2002, published 2005)
